Laboratory results: article PMC8367650

Target: IdeS FabRICATOR enzyme
Test: SEC

Question: How did the stoichiometry N turn out when IdeS FabRICATOR enzyme was run?
Answer: Its stoichiometry N is 2.
